Target: ABI2 (UniProt Q9NYB9)
Assay: Flag co-IP, ABI2 Western blot
Conditions: reference: wild type, OA-treated; sites S668,T670,S671

binding against the reference: weaker
Substance: GRAF1 (from UniProt Q9UNA1) AAA (S668A/T670A/S671A), OA-treated

— PMC10713658
